Measured values from publication PMC3476531, “Synergy of Peptide and Sugar in O-GlcNAcase Substrate Recognition” (Chemistry & Biology, 2012).
Where a chain is given by its changes, count along the chain named. *: point of attachment. βGlcNAc = CC(=O)N[C@@H]1[C@@H](O)[C@H](O)[C@@H](CO)O[C@H]1*

T1: hOGA (Homo sapiens, UniProt O60502)
T1 sequence (O60502 1-916): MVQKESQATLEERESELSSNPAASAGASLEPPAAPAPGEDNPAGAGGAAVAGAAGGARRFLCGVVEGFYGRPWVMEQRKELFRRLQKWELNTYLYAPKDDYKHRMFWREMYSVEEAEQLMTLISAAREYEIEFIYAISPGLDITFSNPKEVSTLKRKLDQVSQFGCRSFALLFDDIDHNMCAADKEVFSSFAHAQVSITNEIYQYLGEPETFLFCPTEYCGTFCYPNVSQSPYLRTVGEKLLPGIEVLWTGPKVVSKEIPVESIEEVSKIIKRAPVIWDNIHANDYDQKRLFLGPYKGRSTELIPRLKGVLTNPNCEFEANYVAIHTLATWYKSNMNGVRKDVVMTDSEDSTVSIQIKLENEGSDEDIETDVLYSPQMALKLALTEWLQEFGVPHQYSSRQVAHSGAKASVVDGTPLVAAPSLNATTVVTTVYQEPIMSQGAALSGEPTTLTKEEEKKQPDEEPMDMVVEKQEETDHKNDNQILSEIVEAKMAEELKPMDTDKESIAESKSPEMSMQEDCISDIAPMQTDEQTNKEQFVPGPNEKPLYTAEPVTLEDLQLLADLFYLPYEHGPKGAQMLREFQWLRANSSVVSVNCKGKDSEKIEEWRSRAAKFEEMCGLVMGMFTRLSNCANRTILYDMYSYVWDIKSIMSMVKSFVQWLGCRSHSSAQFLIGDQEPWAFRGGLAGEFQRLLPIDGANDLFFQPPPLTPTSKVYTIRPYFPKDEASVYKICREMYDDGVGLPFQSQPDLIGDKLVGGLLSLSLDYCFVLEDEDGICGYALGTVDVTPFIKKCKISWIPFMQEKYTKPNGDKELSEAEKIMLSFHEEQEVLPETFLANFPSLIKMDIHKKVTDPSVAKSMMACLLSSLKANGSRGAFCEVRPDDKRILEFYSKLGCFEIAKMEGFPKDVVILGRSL

T2: human O-GlcNAcase (hOGA), wild-type (human) (UniProt O60502)
T2 sequence: T1 sequence (O60502 1-916)

T3: human O-GlcNAcase (hOGA) Y69F (human) (UniProt O60502)
T3 sequence: T1 sequence (O60502 1-916) with Y69F

T4: human O-GlcNAcase (hOGA) Y69K (human) (UniProt O60502)
T4 sequence: T1 sequence (O60502 1-916) with Y69K

T5: human O-GlcNAcase (hOGA) Y69Q (human) (UniProt O60502)
T5 sequence: T1 sequence (O60502 1-916) with Y69Q

T6: human O-GlcNAcase (hOGA) Y69S (human) (UniProt O60502)
T6 sequence: T1 sequence (O60502 1-916) with Y69S

B1: TAB1 peptide (Ser395) VPYS(O-GlcNAc)SAQ, original sequence (peptide)
peptide: Ac-VPYS(βGlcNAc)SAQ-NH2
SMILES: CC(=O)N[C@H]1[C@H](OC[C@H](NC(=O)[C@H](Cc2ccc(O)cc2)NC(=O)[C@@H]2CCCN2C(=O)[C@@H](NC(C)=O)C(C)C)C(=O)N[C@@H](CO)C(=O)N[C@@H](C)C(=O)N[C@@H](CCC(N)=O)C(N)=O)O[C@H](CO)[C@@H](O)[C@@H]1O
B2: TAB1 peptide (Ser395) VPHS(O-GlcNAc)SAQ, altered sequence (peptide)
peptide: VPHSSAQ
B3: hOGA peptide VAHS(O-GlcNAc)GAK (peptide)
peptide: VAHSGAK
B4: p53 peptide QLWVDS(O-GlcNAc)TPPPG (peptide)
peptide: Ac-QLWVDS(βGlcNAc)TPPPG-NH2
SMILES: CC(=O)N[C@H]1[C@H](OC[C@H](NC(=O)[C@H](CC(=O)O)NC(=O)[C@@H](NC(=O)[C@H](Cc2c[nH]c3ccccc23)NC(=O)[C@H](CC(C)C)NC(=O)[C@H](CCC(N)=O)NC(C)=O)C(C)C)C(=O)N[C@H](C(=O)N2CCC[C@H]2C(=O)N2CCC[C@H]2C(=O)N2CCC[C@H]2C(=O)NCC(N)=O)[C@@H](C)O)O[C@H](CO)[C@@H](O)[C@@H]1O

Columns and labels:
[1] = molecular target: T1, hOGA; assay: hOGA glycopeptide hydrolysis, substrate competition assay with 4MU-GlcNAc reporter; type: biochemical; design: GST (N); made in house; host or cells: transiently transfected HEK293 cells; conditions: wild-type full-length hOGA; competition with 4MU-GlcNAc reporter substrate; 37°C, 50 mM citrate-phosphate buffer pH 7.4, 0.1 mg/ml BSA; triplicate; ± error of curve-fit; read-out: Michaelis constant (KM) of glycopeptide substrate for hOGA
Description: Protein was expressed in transiently transfected HEK293 cells and purified via glutathione sepharose affinity chromatography.
hOGA and CpOGA glycopeptide hydrolysis assays were carried out as described previously ([Dorfmueller et al., 2006; Schimpl et al., 2010]) using multisubstrate enzyme kinetics with the fluorigenic pseudosubstrate 4MU-GlcNAc as the reporter substrate. […] Reactions were performed at 37°C in 50 mM citrate-phosphate buffer (pH 7.4) and 0.1 mg/ml BSA. Experiments were performed in triplicate, and data were analyzed and plotted with GraphPad PRISM.

[2] = molecular target: T2, human O-GlcNAcase (hOGA), wild-type (human)
[3] = molecular target: T3, human O-GlcNAcase (hOGA) Y69F (human)
[4] = molecular target: T4, human O-GlcNAcase (hOGA) Y69K (human)
[5] = molecular target: T5, human O-GlcNAcase (hOGA) Y69Q (human)
[6] = molecular target: T6, human O-GlcNAcase (hOGA) Y69S (human)
[7] = molecular target: T2, human O-GlcNAcase (hOGA), wild-type (human); remark: listed apart in the source

Molecule	Km [1]	KM (hOGA) of the glycopeptide substrate (substrate competition assay with 4MU-GlcNAc as reporter substrate) [2]	other results
QLVVS(O-GlcNAc)TPPPG [altered p53 glycopeptide with intramolecular hydrogen bond disrupted]	1800 µM	–	–
p53 peptide (Ser149) QLVDS(O-GlcNAc)TPPPG, original sequence of Table 2	–	21 µM	–
VPHS(O-GlcNAc)SAQ	810 ± 140 µM	–	–
QLVVS(O-GlcNAc)VPPPG [altered p53 glycopeptide with intramolecular hydrogen bond disrupted]	3700 µM	–	–
B1	–	4100 µM	–
B2	–	810 µM	–
B3	–	–	KM of the glycopeptide substrate (substrate competition assay with 4MU-GlcNAc as reporter substrate) [3]: 1200 µM; KM of the glycopeptide substrate (substrate competition assay with 4MU-GlcNAc as reporter substrate) [4]: > 4000 µM; KM of the glycopeptide substrate (substrate competition assay with 4MU-GlcNAc as reporter substrate) [5]: > 4000 µM; KM of the glycopeptide substrate (substrate competition assay with 4MU-GlcNAc as reporter substrate) [6]: > 4000 µM
B4	–	–	KM of the glycopeptide substrate (substrate competition assay with 4MU-GlcNAc as reporter substrate) [7]: 21 µM
